Data from paper PMC7948469.

Key:
[1] = target: plasminogen-binding group A streptococcal M-protein (Streptococcus pyogenes (GAS isolate AP53)); assay: SPR; PAM amine-coupled on a CM-5 chip (up to 250 RU); Pg flowed at 0-50 nM (hPg[D219N] up to 300 nM); 25 °C; HBS-EP+ (10 mM Na-Hepes/150 mM NaCl/3 mM EDTA/0.05% polysorbate 20, pH 7.4); 1:1 Langmuir fit; KD from koff/kon
[2] = target: hPg[D219N] (human Pg with a [D219N] mutation) (human); assay: SPR; each Pg amine-coupled on a CM-5 chip (~1200 RU); SK1 flowed at 0-0.25 uM, SK2b at 0-2 uM; 25 °C; HBS-EP+ with 50 uM p-nitrophenyl-p'-guanidinobenzoate; 1:1 Langmuir fit; KD from koff/kon
[3] = target: hHC-mLC (human heavy chain-mouse light chain) chimeric plasminogen (human | mouse) (UniProt P00747); assay: as above
[4] = target: mHC-hLC (mouse heavy chain-human light chain) chimeric plasminogen (mouse | human) (UniProt P00747); assay: as above
[5] = target: human plasminogen (human); assay: as above
[6] = target: mouse plasminogen (mouse); assay: as above
[7] = target: hPg[D219N] (human Pg with a [D219N] mutation) (human)
[8] = target: mHC-hLC (mouse heavy chain-human light chain) chimeric plasminogen (mouse | human) (UniProt P00747)
[9] = target: human plasminogen (human)

Sequence of plasminogen-binding group A streptococcal M-protein (Streptococcus pyogenes (GAS isolate AP53)) (P49054 30-380 limits assumed): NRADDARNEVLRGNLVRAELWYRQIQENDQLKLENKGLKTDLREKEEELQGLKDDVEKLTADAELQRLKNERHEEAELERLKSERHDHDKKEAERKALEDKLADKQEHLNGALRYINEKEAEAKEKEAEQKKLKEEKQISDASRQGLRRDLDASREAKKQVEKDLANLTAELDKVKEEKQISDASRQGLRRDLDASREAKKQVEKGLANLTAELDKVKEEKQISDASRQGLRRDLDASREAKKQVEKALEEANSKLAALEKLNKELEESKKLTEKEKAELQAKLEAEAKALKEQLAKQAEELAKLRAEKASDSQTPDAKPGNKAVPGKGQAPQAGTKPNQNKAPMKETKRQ

Substance | Kd [1] [µM] | koff [1] [s⁻¹] | kon [1] [M⁻¹ s⁻¹] | Kd [2] [µM] | koff [2] [s⁻¹] | kon [2] [M⁻¹ s⁻¹] | Kd [3] [µM] | koff [3] [s⁻¹] | kon [3] [M⁻¹ s⁻¹] | Kd [4] [µM] | koff [4] [s⁻¹] | kon [4] [M⁻¹ s⁻¹] | Kd [5] [µM] | koff [5] [s⁻¹] | kon [5] [M⁻¹ s⁻¹] | Kd [6] [µM] | koff [6] [s⁻¹] | kon [6] [M⁻¹ s⁻¹] | further results
hHC-mLC (human heavy chain-mouse light chain) chimeric plasminogen (from UniProt P00747 20-580) | 0.003 | 0.0012 | 390000 | – | – | – | – | – | – | – | – | – | – | – | – | – | – | – | –
streptokinase SK1 (natural protein) | – | – | – | 0.0004 | 0.0005 | 1.48e+06 | 0.0019 | 0.0059 | 3.03e+06 | 0.001 | 0.0016 | 1.57e+06 | 0.0009 | 0.0015 | 1.65e+06 | 0.0061 | 0.0102 | 1.65e+06 | –
mouse plasminogen (natural protein) | 0.014 | 0.0033 | 260000 | – | – | – | – | – | – | – | – | – | – | – | – | – | – | – | –
mHC-hLC (mouse heavy chain-human light chain) chimeric plasminogen (from UniProt P00747 581-810) | 0.016 | 0.0038 | 240000 | – | – | – | – | – | – | – | – | – | – | – | – | – | – | – | –
streptokinase SK2b (natural protein) | – | – | – | 0.073 | 0.0012 | 17000 | 0.187 | 0.0014 | 8000 | 0.202 | 0.0016 | 8000 | 0.085 | 0.0015 | 18000 | 0.24 | 0.0016 | 6000 | % active site formation in the SK2b-Pg complex (MUGB cleavage), with saturating PAM (5 uM) [7]: 86%; % active site formation in the SK2b-Pg complex (MUGB cleavage), without PAM [7]: 66%; % active site formation in the SK2b-Pg complex (MUGB cleavage), with saturating PAM (5 uM) [8]: 33%; % active site formation in the SK2b-Pg complex (MUGB cleavage), without PAM [8]: 18%; % active site formation in the SK2b-Pg complex (MUGB cleavage), with saturating PAM (5 uM) [9]: 78%; % active site formation in the SK2b-Pg complex (MUGB cleavage), without PAM [9]: 19%
human plasminogen (natural protein) | 0.0022 | 0.0006 | 270000 | – | – | – | – | – | – | – | – | – | – | – | – | – | – | – | –
